The values below come from article doi:10.1101/259481 (bioRxiv, 2018).

Where two headings read alike, the source gives them in different places.

The Kd is a measure of binding affinity in units of concentration.

B5: platelet-derived growth factor (PDGF)-BB (ligand, human, UniProt P01127 82-190, looked up)
chain: SLGSLTIAEPAMIAECKTRTEVFEISRRLIDRTNANFLVWPPCVEVQRCSGCCNNRNVQCRPTQVQLRPVQVRKIEIVRKKPIFKKATVTLEDHLACKCETVAAARPVT
B6: placental growth factor (PlGF)-2 (ligand, human, UniProt P49763-3 19-170, looked up)
chain: LPAVPPQQWALSAGNGSSEVEVVPFQEVWGRSYCRALERLVDVVSEYPSEVEHMFSPSCVSLLRCTGCCGDENLHCVPVETANVTMQLLKIRSGDRPSYVELTFSQHVRCECRPLREKMKPERRRPKGRGKRRREKQRPTDCHLCGDAVPRR

Assay [1] concerns the target recombinant laminin α3_(2928-3150) protein (human) (UniProt Q16787). Description: SPR. (SPR reads the build-up and loss of mass on a sensor chip optically.)
The target in another assay is laminin-521 (human, UniProt O15230 36-3695; P55268 33-1798; P11047 34-1609). Description: SPR.
Assay [2] addresses B6. Description: ELISA. Background: ELISA stands for enzyme-linked immunosorbent assay.
In assay [3] the target is B5. The experiment in a line: ELISA.
The target in assay [4] is fibroblast growth factor (FGF)-2 (human, UniProt P09038 143-288). Description: ELISA.
Assay [5] deals with T1, recombinant human syndecan-1 (human, UniProt P18827 23-254).
T1 sequence (looked up): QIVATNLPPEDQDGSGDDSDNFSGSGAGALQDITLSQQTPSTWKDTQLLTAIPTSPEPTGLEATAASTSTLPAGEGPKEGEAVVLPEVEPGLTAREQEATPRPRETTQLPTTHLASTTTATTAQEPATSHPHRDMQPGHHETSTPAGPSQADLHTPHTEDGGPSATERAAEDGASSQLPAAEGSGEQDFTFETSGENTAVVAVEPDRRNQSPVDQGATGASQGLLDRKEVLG
The experiment in a line: ELISA.

Assay [6] addresses recombinant human syndecan-2 (human, UniProt P34741 19-144). Description: ELISA.
Assay [7] deals with T2, recombinant human syndecan-4 (human, UniProt P31431 19-145).
T2 sequence (looked up): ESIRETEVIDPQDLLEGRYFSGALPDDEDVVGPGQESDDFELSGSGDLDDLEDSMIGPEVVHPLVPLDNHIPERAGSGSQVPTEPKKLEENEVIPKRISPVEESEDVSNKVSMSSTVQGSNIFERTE
The experiment in a line: ELISA.

Assay [8] deals with T3, recombinant laminin α3_(2928-3150) protein (human, UniProt Q16787 2928-3150).
T3 sequence (looked up): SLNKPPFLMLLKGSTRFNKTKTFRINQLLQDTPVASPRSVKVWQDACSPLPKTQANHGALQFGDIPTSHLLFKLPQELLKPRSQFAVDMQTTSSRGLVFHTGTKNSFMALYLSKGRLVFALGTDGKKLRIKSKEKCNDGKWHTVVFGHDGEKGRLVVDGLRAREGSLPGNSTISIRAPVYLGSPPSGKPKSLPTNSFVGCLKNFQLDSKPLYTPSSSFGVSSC
The experiment in a line: SPR.

In assay [9] the target is T4, laminin-111 (human, UniProt P25391 18-3075; P07942 22-1786; P11047 34-1609). The experiment in a line: ELISA.
The target of assay [10] is T5, laminin-211 (human, UniProt P24043 23-3122; P07942 22-1786; P11047 34-1609). Description: ELISA.
The target of the next assay is laminin-411 (human, UniProt Q16363 25-1823; P07942 22-1786; P11047 34-1609). The experiment in a line: ELISA.
The next assay deals with laminin-421 (human, UniProt Q16363 25-1823; P55268 33-1798; P11047 34-1609). The experiment in a line: ELISA.
Assay [11] has as its target T4, laminin-111. Description: ELISA. The source holds these as a separate data set.
Assay [12] deals with T5, laminin-211. The experiment in a line: ELISA. The source holds these as a separate data set.
Assay [13] concerns the target T3, recombinant laminin α3_(2928-3150) …. The experiment in a line: ELISA.

Chain of fibroblast growth factor (FGF)-2 (P09038 143-288): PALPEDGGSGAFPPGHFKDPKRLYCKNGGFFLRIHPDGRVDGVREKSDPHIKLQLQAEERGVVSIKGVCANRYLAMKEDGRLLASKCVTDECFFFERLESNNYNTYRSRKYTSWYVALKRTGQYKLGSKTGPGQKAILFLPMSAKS
Chain of recombinant human syndecan-2 (P34741 19-144): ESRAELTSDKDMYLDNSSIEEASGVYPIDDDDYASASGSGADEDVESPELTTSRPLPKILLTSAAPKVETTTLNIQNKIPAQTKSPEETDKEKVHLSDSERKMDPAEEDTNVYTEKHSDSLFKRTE

Turning to “vascular endothelial growth factor (VEGF)-A165 (ligand)”, the Kd worked out at 1.2 nM in [1] and 5.8 nM with laminin-521.

B1: laminin-derived peptide α3_(3043-3067) (peptide, UniProt Q16787 3043-3067, looked up)
peptide: RLVFALGTDGKKLRIKSKEKCNDGK
Regarding B1, the binding result in [2], in assay [3], in [4], in assay [5], in [6] and in assay [7] was “binds” throughout.

B2: laminin-derived peptide α3_(2932-2951) (peptide, UniProt Q16787 2932-2951, looked up)
peptide: PPFLMLLKGSTRFNKTKTFR
In the case of B2, in assay [4], the binding result is “binds”.

B3: laminin-derived peptide α5_(3300-3330) (peptide, UniProt O15230 3300-3330, looked up)
peptide: TPGLGPRGLQATARKASRRSRQPARHPACML
Take B3: the binding result in assay [2], in [5], in assay [6] and in assay [7] was “binds” each time.

B4: laminin-derived peptide α5_(3539-3550) (peptide, UniProt O15230 3539-3550, looked up)
peptide: TLPDVGLELEVR
With B4, the binding result in assay [2], in assay [3] and in [4] was “binds” throughout.
Take B5: the figures for the Kd (with laminin-521; in assay [8]) were 24.2 nM and 10.2 nM, respectively. The binding result with laminin-111 [9], with laminin-211 [10], with laminin-411 and with laminin-421 was “binds” throughout.
On to B6, for which the binding result (with laminin-111 [11]; with laminin-211 [12]; in assay [13]; with laminin-411; in the assay with laminin-421) was “binds” in each case. In the assay with laminin-521, this molecule showed a Kd of 12.9 nM.

B7: laminin-derived peptide α5_(3417-3436) (peptide, UniProt O15230 3417-3436, looked up)
peptide: RQRSRPGRWHKVSVRWEKNR
As to B7, the binding result in assay [2], in assay [3], in assay [4], in assay [5], in assay [6] and in assay [7] was “binds” each time.
